Measurements from the supplement of paper PMC7125110.
± gives the standard error. Fewer inactive variants are shown than the library holds.

B1: glmS ribozyme (parent)
chain: AUAAAAGCGCCAGAACUACAGAAAUGUAGUUGACGAGGAGGAGGUUUAUCGAAUUUUCGGCGGAUGCCUCCAAA

Tests used:
Details in all cases: with glucosamine-6-phosphate
glucosamine-6-phosphate [1] = variants of: B1; test: self-cleavage kobs at 40 uM GlcN6P; higher = faster cleavage; RNA array
Method in brief: (§1)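 Using a hybridised Cy3 probe at 37 °C, barcoded ribozyme variants transcribed in situ by E. coli RNA polymerase on sequenced MiSeq chips were monitored across tiles imaged over ~14 h. The flow contained glucosamine-6-phosphate from 40 μM to 10 mM in HEPES/KCl/Mg(OAc)2 buffer. Signals were normalised to baseline and to non-cleaving reference variants before per-tile medians were fit to one- or two-exponential decays to yield kobs. Weighted Michaelis–Menten fits across concentrations gave kcat and KM.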

glucosamine-6-phosphate [2] = variants of: B1; test: self-cleavage kobs at 160 uM GlcN6P; higher = faster cleavage; RNA array
Method in brief: as §1

glucosamine-6-phosphate [3] = variants of: B1; test: self-cleavage kobs at 640 uM GlcN6P; higher = faster cleavage; RNA array
Method in brief: as §1

glucosamine-6-phosphate [4] = variants of: B1; test: self-cleavage kobs at 2500 uM GlcN6P; higher = faster cleavage; RNA array
Method in brief: as §1

glucosamine-6-phosphate [5] = variants of: B1; test: self-cleavage kobs at 10000 uM GlcN6P; higher = faster cleavage; RNA array
Method in brief: as §1

| Variant | self-cleavage kobs at 40 uM GlcN6P (glucosamine-6-phosphate [1]) | self-cleavage kobs at 160 uM GlcN6P (glucosamine-6-phosphate [2]) | self-cleavage kobs at 640 uM GlcN6P (glucosamine-6-phosphate [3]) | self-cleavage kobs at 2500 uM GlcN6P (glucosamine-6-phosphate [4]) | self-cleavage kobs at 10000 uM GlcN6P (glucosamine-6-phosphate [5]) |
| --- | --- | --- | --- | --- | --- |
| A12U C68U | 0.000326 ± 3.4e-05 s⁻¹ | 0.000964 ± 9.8e-05 s⁻¹ | 0.00195 ± 0.00021 s⁻¹ | 0.0112 ± 0.002 s⁻¹ | 0.00957 ± 0.0013 s⁻¹ |
| C10U G44U U45A G59C C67G | < 1e-05 s⁻¹ |  |  |  | < 1e-05 s⁻¹ |
| C10G U30A | < 1e-05 s⁻¹ | < 1e-05 s⁻¹ | < 1e-05 s⁻¹ | < 1e-05 s⁻¹ | < 1e-05 s⁻¹ |
| G13C C61A C71U | < 1e-05 s⁻¹ |  |  |  |  |
| C11A A39G U45A A52U | < 1e-05 s⁻¹ |  |  |  |  |
| A14C U45G A52C G63A | < 1e-05 s⁻¹ |  |  |  |  |
| A14U G43A C61G U65A | < 1e-05 s⁻¹ |  |  |  | < 1e-05 s⁻¹ |
| G13U C50A | < 1e-05 s⁻¹ |  |  |  |  |
| A12G G38A G66U | < 1e-05 s⁻¹ | < 1e-05 s⁻¹ | < 1e-05 s⁻¹ |  | < 1e-05 s⁻¹ |
| C11A G40A | < 1e-05 s⁻¹ | < 1e-05 s⁻¹ |  |  | 3.6e-05 ± 1.4e-05 s⁻¹ |
| C10G C70U | < 1e-05 s⁻¹ |  |  |  |  |
| A12U U30G U56G | 0.000609 ± 0.00013 s⁻¹ |  |  |  | 0.0339 ± 0.0098 s⁻¹ |
| A14U G43U G51U | < 1e-05 s⁻¹ |  |  | < 1e-05 s⁻¹ |  |
| A12C U49C U56G C58G | < 1e-05 s⁻¹ |  | < 1e-05 s⁻¹ |  | < 1e-05 s⁻¹ |
| A12G C50A | < 1e-05 s⁻¹ |  |  |  | < 1e-05 s⁻¹ |
| C10G A36G | < 1e-05 s⁻¹ |  | < 1e-05 s⁻¹ |  | < 1e-05 s⁻¹ |
| A15G G43C | < 1e-05 s⁻¹ | < 1e-05 s⁻¹ | < 1e-05 s⁻¹ | < 1e-05 s⁻¹ | < 1e-05 s⁻¹ |
| A14U G63U A64U | < 1e-05 s⁻¹ |  |  |  |  |
| A15G G44U G51C A52G U56G | < 1e-05 s⁻¹ | < 1e-05 s⁻¹ | < 1e-05 s⁻¹ |  |  |
| G13A U46G G59U C70U | < 1e-05 s⁻¹ |  |  | < 1e-05 s⁻¹ |  |
| C11G G38C | < 1e-05 s⁻¹ |  | < 1e-05 s⁻¹ | < 1e-05 s⁻¹ |  |
| C11U U47A A52C | < 1e-05 s⁻¹ |  |  |  |  |
| C10U G40U U49A | < 1e-05 s⁻¹ |  | < 1e-05 s⁻¹ |  |  |
| A14C A53U U69C | 5.39e-05 ± 1.6e-05 s⁻¹ |  |  |  |  |
| A12G A48G G63A A64G | < 1e-05 s⁻¹ |  |  |  | < 1e-05 s⁻¹ |
| G13U G60U C68U | < 1e-05 s⁻¹ |  |  |  |  |
| G13U A53G G63A C68U | < 1e-05 s⁻¹ |  |  |  | < 1e-05 s⁻¹ |

| Variant | self-cleavage kobs at 40 uM GlcN6P (glucosamine-6-phosphate [1]) | self-cleavage kobs at 160 uM GlcN6P (glucosamine-6-phosphate [2]) | self-cleavage kobs at 640 uM GlcN6P (glucosamine-6-phosphate [3]) | self-cleavage kobs at 2500 uM GlcN6P (glucosamine-6-phosphate [4]) | self-cleavage kobs at 10000 uM GlcN6P (glucosamine-6-phosphate [5]) |
| --- | --- | --- | --- | --- | --- |
| A12C U45G | 0.000128 ± 4.1e-05 s⁻¹ |  |  |  | 0.012 ± 0.004 s⁻¹ |
| A15C G32U A42U | < 1e-05 s⁻¹ |  |  |  | < 1e-05 s⁻¹ |
| C11G A48G | < 1e-05 s⁻¹ | < 1e-05 s⁻¹ | < 1e-05 s⁻¹ | < 1e-05 s⁻¹ | < 1e-05 s⁻¹ |
| A15G U30G A33G A48C | < 1e-05 s⁻¹ |  |  |  |  |
| C10G G32U A53G C58G G60C | < 1e-05 s⁻¹ |  |  |  | 0.000266 ± 4.4e-05 s⁻¹ |
| A12G C16G A53U C71A | < 1e-05 s⁻¹ |  |  |  |  |
| C10U G59C | < 1e-05 s⁻¹ | < 1e-05 s⁻¹ | < 1e-05 s⁻¹ |  | < 1e-05 s⁻¹ |
| A14C G35U | < 1e-05 s⁻¹ | < 1e-05 s⁻¹ |  | < 1e-05 s⁻¹ | < 1e-05 s⁻¹ |
| A12U U65A C67A | 6.19e-05 ± 1.3e-05 s⁻¹ |  |  |  | 0.000114 ± 2e-05 s⁻¹ |
| C10G U69A | < 1e-05 s⁻¹ |  |  |  |  |
| A15C A36C C71U | < 1e-05 s⁻¹ |  |  |  | < 1e-05 s⁻¹ |
| A12U G62U C70U | < 1e-05 s⁻¹ |  |  |  | < 1e-05 s⁻¹ |
| A15C A48G U69G | < 1e-05 s⁻¹ |  |  |  | < 1e-05 s⁻¹ |
| A12U U30C C68A | < 1e-05 s⁻¹ |  |  |  |  |
| A14G U54A G59A | < 1e-05 s⁻¹ |  |  | 8.37e-05 ± 2.7e-05 s⁻¹ | 0.000121 ± 3.2e-05 s⁻¹ |
| A12C C34G | < 1e-05 s⁻¹ | < 1e-05 s⁻¹ |  |  | < 1e-05 s⁻¹ |
| A12U U57C C61A | < 1e-05 s⁻¹ |  | < 1e-05 s⁻¹ |  | < 1e-05 s⁻¹ |
| C11G U55C | < 1e-05 s⁻¹ | < 1e-05 s⁻¹ | < 1e-05 s⁻¹ |  |  |
| A12G C58U | < 1e-05 s⁻¹ |  |  | 1.67e-05 ± 7.9e-06 s⁻¹ | 6.35e-05 ± 8.1e-06 s⁻¹ |
| A12U A14G A52G | 0.000148 ± 3e-05 s⁻¹ |  |  | 0.00387 ± 0.0018 s⁻¹ | 0.00726 ± 0.0014 s⁻¹ |
| G13C U45C | < 1e-05 s⁻¹ | < 1e-05 s⁻¹ | < 1e-05 s⁻¹ | < 1e-05 s⁻¹ |  |
| A12U A39U C71U | 0.000517 ± 0.00011 s⁻¹ |  |  |  | 0.0493 ± 0.014 s⁻¹ |
| A14C G29A A33U | < 1e-05 s⁻¹ | < 1e-05 s⁻¹ |  | < 1e-05 s⁻¹ |  |
| C11U A33C A53U U57G G60U | < 1e-05 s⁻¹ |  |  |  | < 1e-05 s⁻¹ |
| A12C C34U G44C U56A U57A | < 1e-05 s⁻¹ |  |  |  | < 1e-05 s⁻¹ |
| A12C G29A G35C A52U U54A G60U C67G | < 1e-05 s⁻¹ |  |  |  |  |
